Source: the supplement of paper PMC9112550, “Optimization of the antimicrobial peptide Bac7 by deep mutational scanning” (BMC Biology, 2022)

System: Escherichia coli TOP10
Experiment: shrunken log2 fold change of peptide-encoding DNA abundance (4.5 h post-induction vs induction); higher = less antimicrobial activity (less host growth inhibition)
Conditions: time post-induction: 4.5 h; library: site-saturation at positions 5, 18, 19, 20
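Also: peptides expressed intracellularly from a pBAD plasmid library in pooled LB shake-flask culture, induced with 0.3% L-arabinose, DNA abundance read by NGS, three biological replicates, DESeq2 with apeglm shrinkage.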

Sequence: RRIRPRPPRLPRPRPRPEVFPRP
- shrunken log2 fold change: 0.0976

Sequence: RRIRFRPPRLPRPRPRPWKLPRP
- shrunken log2 fold change: -0.0164

Sequence: RRIRGRPPRLPRPRPRPYKYPRP
- shrunken log2 fold change: -0.346

Sequence: RRIRYRPPRLPRPRPRPPNYPRP
- shrunken log2 fold change: -0.523

Sequence: RRIRARPPRLPRPRPRPPLHPRP
- shrunken log2 fold change: 0.467

Sequence: RRIRRRPPRLPRPRPRPGLWPRP
- shrunken log2 fold change: 0.622

Sequence: RRIRPRPPRLPRPRPRPMDFPRP
- shrunken log2 fold change: -0.115

Sequence: RRIRCRPPRLPRPRPRPSASPRP
- shrunken log2 fold change: 0.165

Sequence: RRIRHRPPRLPRPRPRPFVSPRP
- shrunken log2 fold change: -0.19

Sequence: RRIRIRPPRLPRPRPRPITAPRP
- shrunken log2 fold change: -0.592

Sequence: RRIRCRPPRLPRPRPRPAQSPRP
- shrunken log2 fold change: 0.345

Sequence: RRIRNRPPRLPRPRPRPFDSPRP
- shrunken log2 fold change: -0.303

Sequence: RRIRFRPPRLPRPRPRPGKPPRP
- shrunken log2 fold change: -0.0809

Sequence: RRIRSRPPRLPRPRPRPGMLPRP
- shrunken log2 fold change: -0.0372

Sequence: RRIRARPPRLPRPRPRPWRWPRP
- shrunken log2 fold change: 0.451

Sequence: RRIRKRPPRLPRPRPRPNQPPRP
- shrunken log2 fold change: 0.146

Sequence: RRIRHRPPRLPRPRPRPWQTPRP
- shrunken log2 fold change: 0.266

Sequence: RRIRFRPPRLPRPRPRPWTPPRP
- shrunken log2 fold change: -0.26

Sequence: RRIRNRPPRLPRPRPRPFAKPRP
- shrunken log2 fold change: 0.637

Sequence: RRIRKRPPRLPRPRPRPVMCPRP
- shrunken log2 fold change: 0.0989

Sequence: RRIRYRPPRLPRPRPRPETQPRP
- shrunken log2 fold change: -0.00798

Sequence: RRIRERPPRLPRPRPRPQAIPRP
- shrunken log2 fold change: -0.0062

Sequence: RRIRERPPRLPRPRPRPYDNPRP
- shrunken log2 fold change: 0.033

Sequence: RRIRWRPPRLPRPRPRPPRVPRP
- shrunken log2 fold change: 0.626

Sequence: RRIRIRPPRLPRPRPRPATHPRP
- shrunken log2 fold change: -0.165

Sequence: RRIRQRPPRLPRPRPRPMMNPRP
- shrunken log2 fold change: -0.127

Sequence: RRIRGRPPRLPRPRPRPCDLPRP
- shrunken log2 fold change: 0.0268

Sequence: RRIRPRPPRLPRPRPRPKRHPRP
- shrunken log2 fold change: 0.267

Sequence: RRIRYRPPRLPRPRPRPSSMPRP
- shrunken log2 fold change: -0.999

Sequence: RRIRRRPPRLPRPRPRPPTMPRP
- shrunken log2 fold change: 0.374

Sequence: RRIRNRPPRLPRPRPRPSAGPRP
- shrunken log2 fold change: -0.225

Sequence: RRIRVRPPRLPRPRPRPWREPRP
- shrunken log2 fold change: 0.0932

Sequence: RRIRIRPPRLPRPRPRPVDNPRP
- shrunken log2 fold change: -0.0726

Sequence: RRIRERPPRLPRPRPRPSQMPRP
- shrunken log2 fold change: 0.0681

Sequence: RRIRGRPPRLPRPRPRPVFGPRP
- shrunken log2 fold change: 0.556

Sequence: RRIRMRPPRLPRPRPRPKSCPRP
- shrunken log2 fold change: 0.839

Sequence: RRIRARPPRLPRPRPRPWEYPRP
- shrunken log2 fold change: -0.00494

Sequence: RRIRSRPPRLPRPRPRPREWPRP
- shrunken log2 fold change: 0.759

Sequence: RRIRVRPPRLPRPRPRPVTIPRP
- shrunken log2 fold change: -0.232

Sequence: RRIRTRPPRLPRPRPRPTDIPRP
- shrunken log2 fold change: 0.0221

Sequence: RRIRIRPPRLPRPRPRPQPTPRP
- shrunken log2 fold change: 0.115

Sequence: RRIRCRPPRLPRPRPRPMRAPRP
- shrunken log2 fold change: 0.919

Sequence: RRIRWRPPRLPRPRPRPAGHPRP
- shrunken log2 fold change: -0.0472

Sequence: RRIRERPPRLPRPRPRPILGPRP
- shrunken log2 fold change: -0.197

Sequence: RRIRQRPPRLPRPRPRPRWPPRP
- shrunken log2 fold change: 0.616

Sequence: RRIRCRPPRLPRPRPRPDMAPRP
- shrunken log2 fold change: -0.145

Sequence: RRIRLRPPRLPRPRPRPFVFPRP
- shrunken log2 fold change: -0.337

Sequence: RRIRWRPPRLPRPRPRPCRGPRP
- shrunken log2 fold change: -0.0518

Sequence: RRIRPRPPRLPRPRPRPNVTPRP
- shrunken log2 fold change: 0.209

Sequence: RRIRWRPPRLPRPRPRPCLYPRP
- shrunken log2 fold change: -0.0689

Sequence: RRIRARPPRLPRPRPRPQYKPRP
- shrunken log2 fold change: -0.303

Sequence: RRIRDRPPRLPRPRPRPDSDPRP
- shrunken log2 fold change: 0.0999

Sequence: RRIRKRPPRLPRPRPRPGFTPRP
- shrunken log2 fold change: 0.0173

Sequence: RRIRKRPPRLPRPRPRPYSYPRP
- shrunken log2 fold change: -0.0565

Sequence: RRIRCRPPRLPRPRPRPSAGPRP
- shrunken log2 fold change: 0.194

Sequence: RRIRVRPPRLPRPRPRPFGGPRP
- shrunken log2 fold change: -0.216

Sequence: RRIRHRPPRLPRPRPRPELNPRP
- shrunken log2 fold change: -0.098

Sequence: RRIRNRPPRLPRPRPRPEYPPRP
- shrunken log2 fold change: -0.243

Sequence: RRIRHRPPRLPRPRPRPLIIPRP
- shrunken log2 fold change: -0.377

Sequence: RRIRPRPPRLPRPRPRPLTMPRP
- shrunken log2 fold change: -0.186

Sequence: RRIRGRPPRLPRPRPRPGRPPRP
- shrunken log2 fold change: 0.737

Sequence: RRIRKRPPRLPRPRPRPGLIPRP
- shrunken log2 fold change: 0.13

Sequence: RRIRQRPPRLPRPRPRPHNYPRP
- shrunken log2 fold change: -0.437

Sequence: RRIRVRPPRLPRPRPRPAMEPRP
- shrunken log2 fold change: -0.139

Sequence: RRIRIRPPRLPRPRPRPIGIPRP
- shrunken log2 fold change: -0.0608

Sequence: RRIRARPPRLPRPRPRPGSTPRP
- shrunken log2 fold change: 0.247

Sequence: RRIRFRPPRLPRPRPRPGLTPRP
- shrunken log2 fold change: -0.143

Sequence: RRIRVRPPRLPRPRPRPINQPRP
- shrunken log2 fold change: -0.749

Sequence: RRIRERPPRLPRPRPRPYITPRP
- shrunken log2 fold change: -1.07

Sequence: RRIRSRPPRLPRPRPRPDEYPRP
- shrunken log2 fold change: -0.205

Sequence: RRIRVRPPRLPRPRPRPEDMPRP
- shrunken log2 fold change: -0.115

Sequence: RRIRKRPPRLPRPRPRPDGTPRP
- shrunken log2 fold change: 0.293

Sequence: RRIRSRPPRLPRPRPRPSKDPRP
- shrunken log2 fold change: -0.61

Sequence: RRIRTRPPRLPRPRPRPTGFPRP
- shrunken log2 fold change: -0.0124

Sequence: RRIRRRPPRLPRPRPRPVWNPRP
- shrunken log2 fold change: 0.0425

Sequence: RRIRARPPRLPRPRPRPPYGPRP
- shrunken log2 fold change: 0.0793

Sequence: RRIRRRPPRLPRPRPRPDLDPRP
- shrunken log2 fold change: 0.67

Sequence: RRIRDRPPRLPRPRPRPIRGPRP
- shrunken log2 fold change: -0.0417

Sequence: RRIRFRPPRLPRPRPRPPSQPRP
- shrunken log2 fold change: -0.0751

Sequence: RRIRCRPPRLPRPRPRPCKMPRP
- shrunken log2 fold change: 5.36

Sequence: RRIRTRPPRLPRPRPRPTDGPRP
- shrunken log2 fold change: -0.0714

Sequence: RRIRHRPPRLPRPRPRPDHQPRP
- shrunken log2 fold change: 0.0561

Sequence: RRIRLRPPRLPRPRPRPRISPRP
- shrunken log2 fold change: 0.0807

Sequence: RRIRKRPPRLPRPRPRPQQTPRP
- shrunken log2 fold change: -0.0533

Sequence: RRIRVRPPRLPRPRPRPAKLPRP
- shrunken log2 fold change: 0.139

Sequence: RRIRKRPPRLPRPRPRPAMMPRP
- shrunken log2 fold change: 1.24

Sequence: RRIRFRPPRLPRPRPRPCFDPRP
- shrunken log2 fold change: -0.121

Sequence: RRIRNRPPRLPRPRPRPFNLPRP
- shrunken log2 fold change: -0.207

Sequence: RRIRFRPPRLPRPRPRPLKYPRP
- shrunken log2 fold change: -0.262

Sequence: RRIRYRPPRLPRPRPRPNAYPRP
- shrunken log2 fold change: -0.212

Sequence: RRIRMRPPRLPRPRPRPIQRPRP
- shrunken log2 fold change: 0.544

Sequence: RRIRWRPPRLPRPRPRPRTGPRP
- shrunken log2 fold change: 0.235

Sequence: RRIRWRPPRLPRPRPRPLYKPRP
- shrunken log2 fold change: -0.849

Sequence: RRIRYRPPRLPRPRPRPELFPRP
- shrunken log2 fold change: -0.0192

Sequence: RRIRVRPPRLPRPRPRPMMYPRP
- shrunken log2 fold change: 0.00519

Sequence: RRIRNRPPRLPRPRPRPEESPRP
- shrunken log2 fold change: 0.013

Sequence: RRIRHRPPRLPRPRPRPQMCPRP
- shrunken log2 fold change: -0.0203

Sequence: RRIRGRPPRLPRPRPRPTYVPRP
- shrunken log2 fold change: -0.144

Sequence: RRIRPRPPRLPRPRPRPDYDPRP
- shrunken log2 fold change: -0.252

Sequence: RRIRRRPPRLPRPRPRPQMAPRP
- shrunken log2 fold change: 0.455

Sequence: RRIRCRPPRLPRPRPRPLVHPRP
- shrunken log2 fold change: -0.075

Sequence: RRIRIRPPRLPRPRPRPALAPRP
- shrunken log2 fold change: 0.202

Sequence: RRIRWRPPRLPRPRPRPDGGPRP
- shrunken log2 fold change: -0.0355

Sequence: RRIRFRPPRLPRPRPRPNHGPRP
- shrunken log2 fold change: -0.4

Sequence: RRIRCRPPRLPRPRPRPHYKPRP
- shrunken log2 fold change: -0.894

Sequence: RRIRGRPPRLPRPRPRPHRIPRP
- shrunken log2 fold change: 0.00463

Sequence: RRIRIRPPRLPRPRPRPYCVPRP
- shrunken log2 fold change: -0.207

Sequence: RRIRWRPPRLPRPRPRPHDQPRP
- shrunken log2 fold change: 0.36

Sequence: RRIRTRPPRLPRPRPRPMSFPRP
- shrunken log2 fold change: -0.0183

Sequence: RRIRLRPPRLPRPRPRPMLNPRP
- shrunken log2 fold change: -0.423

Sequence: RRIRFRPPRLPRPRPRPTDFPRP
- shrunken log2 fold change: -0.302

Sequence: RRIRFRPPRLPRPRPRPVPHPRP
- shrunken log2 fold change: -0.342

Sequence: RRIRYRPPRLPRPRPRPGMLPRP
- shrunken log2 fold change: -0.139

Sequence: RRIRARPPRLPRPRPRPFFKPRP
- shrunken log2 fold change: -0.0427

Sequence: RRIRPRPPRLPRPRPRPMNFPRP
- shrunken log2 fold change: -0.165

Sequence: RRIRRRPPRLPRPRPRPKLPPRP
- shrunken log2 fold change: 0.369

Sequence: RRIRQRPPRLPRPRPRPQRSPRP
- shrunken log2 fold change: 0.0623

Sequence: RRIRLRPPRLPRPRPRPTDKPRP
- shrunken log2 fold change: -0.251

Sequence: RRIRTRPPRLPRPRPRPFYFPRP
- shrunken log2 fold change: -0.57

Sequence: RRIRKRPPRLPRPRPRPKDSPRP
- shrunken log2 fold change: 0.218

Sequence: RRIRVRPPRLPRPRPRPNFEPRP
- shrunken log2 fold change: 0.178

Sequence: RRIRCRPPRLPRPRPRPSSFPRP
- shrunken log2 fold change: -0.0694

Sequence: RRIRVRPPRLPRPRPRPHGYPRP
- shrunken log2 fold change: -0.298

Sequence: RRIRERPPRLPRPRPRPRSKPRP
- shrunken log2 fold change: 0.00172

Sequence: RRIRLRPPRLPRPRPRPWNTPRP
- shrunken log2 fold change: -0.444
